Test results: the supplement of paper PMC10065799, “High-throughput profiling of sequence recognition by tyrosine kinases and SH2 domains using bacterial peptide display” (eLife, 2023)

Assays:
[1] = system: AncSZ; assay: phosphorylation enrichment, bacterial display (enrichment ratio); higher = better substrate or ligand; peptides without Tyr show the background
[2] = target: EPHB1 (UniProt P54762); assay: as above
[3] = target: EPHB2 (UniProt P29323); assay: as above
[4] = target: FGFR1 (UniProt P11362); assay: as above
[5] = target: FGFR3 (UniProt P22607); assay: as above
Chain of FGFR3 (P22607 whole entry, looked up): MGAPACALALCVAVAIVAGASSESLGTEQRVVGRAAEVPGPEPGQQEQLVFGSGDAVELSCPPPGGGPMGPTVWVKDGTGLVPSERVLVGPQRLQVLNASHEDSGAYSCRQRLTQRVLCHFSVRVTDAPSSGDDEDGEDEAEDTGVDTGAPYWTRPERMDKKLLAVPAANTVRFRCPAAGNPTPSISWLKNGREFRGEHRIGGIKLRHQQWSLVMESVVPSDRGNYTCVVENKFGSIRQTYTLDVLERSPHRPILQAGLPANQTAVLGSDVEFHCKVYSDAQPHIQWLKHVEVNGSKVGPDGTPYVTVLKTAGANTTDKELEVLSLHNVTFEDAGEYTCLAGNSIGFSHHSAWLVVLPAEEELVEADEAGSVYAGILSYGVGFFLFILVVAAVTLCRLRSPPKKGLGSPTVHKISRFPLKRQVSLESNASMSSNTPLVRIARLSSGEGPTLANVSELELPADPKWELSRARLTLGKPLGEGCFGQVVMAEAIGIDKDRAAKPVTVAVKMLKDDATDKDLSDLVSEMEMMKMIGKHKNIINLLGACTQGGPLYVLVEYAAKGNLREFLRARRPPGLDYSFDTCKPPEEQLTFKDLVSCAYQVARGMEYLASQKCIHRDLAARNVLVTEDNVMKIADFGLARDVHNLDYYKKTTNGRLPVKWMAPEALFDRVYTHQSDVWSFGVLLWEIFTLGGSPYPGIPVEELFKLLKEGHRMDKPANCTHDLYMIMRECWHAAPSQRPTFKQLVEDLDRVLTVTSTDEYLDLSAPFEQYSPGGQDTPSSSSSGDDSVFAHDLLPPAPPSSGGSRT

[6] = system: Fer (mouse); assay: as above
[7] = target: Fes (UniProt P07332); assay: as above
Chain of Fes (P07332 whole entry, looked up): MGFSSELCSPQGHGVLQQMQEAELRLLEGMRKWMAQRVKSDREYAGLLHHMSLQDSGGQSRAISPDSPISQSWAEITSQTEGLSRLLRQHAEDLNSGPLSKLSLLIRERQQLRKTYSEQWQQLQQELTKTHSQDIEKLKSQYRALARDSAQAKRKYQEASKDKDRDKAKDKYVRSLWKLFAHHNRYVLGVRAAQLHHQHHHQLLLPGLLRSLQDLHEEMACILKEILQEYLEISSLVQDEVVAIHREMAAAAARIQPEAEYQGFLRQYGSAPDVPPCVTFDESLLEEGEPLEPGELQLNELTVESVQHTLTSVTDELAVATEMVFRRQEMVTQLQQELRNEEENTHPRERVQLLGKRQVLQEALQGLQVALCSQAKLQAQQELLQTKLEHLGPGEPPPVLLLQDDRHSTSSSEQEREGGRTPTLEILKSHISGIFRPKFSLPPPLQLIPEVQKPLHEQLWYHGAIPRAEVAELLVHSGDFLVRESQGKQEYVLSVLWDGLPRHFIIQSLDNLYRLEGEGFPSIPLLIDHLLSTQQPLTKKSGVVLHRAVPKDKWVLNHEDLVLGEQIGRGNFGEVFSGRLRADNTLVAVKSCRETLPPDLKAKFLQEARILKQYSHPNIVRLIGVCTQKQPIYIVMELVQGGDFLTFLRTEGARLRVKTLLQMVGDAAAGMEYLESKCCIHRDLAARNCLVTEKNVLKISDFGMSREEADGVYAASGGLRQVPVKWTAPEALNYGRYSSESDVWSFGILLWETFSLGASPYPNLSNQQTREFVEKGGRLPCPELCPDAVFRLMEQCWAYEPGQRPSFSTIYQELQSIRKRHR

[8] = target: Fyn (UniProt P06241); assay: as above
[9] = target: Hck (UniProt P08631); assay: as above
[10] = target: Jak2 (UniProt O60674); assay: as above
Chain of Jak2 (O60674 whole entry, looked up): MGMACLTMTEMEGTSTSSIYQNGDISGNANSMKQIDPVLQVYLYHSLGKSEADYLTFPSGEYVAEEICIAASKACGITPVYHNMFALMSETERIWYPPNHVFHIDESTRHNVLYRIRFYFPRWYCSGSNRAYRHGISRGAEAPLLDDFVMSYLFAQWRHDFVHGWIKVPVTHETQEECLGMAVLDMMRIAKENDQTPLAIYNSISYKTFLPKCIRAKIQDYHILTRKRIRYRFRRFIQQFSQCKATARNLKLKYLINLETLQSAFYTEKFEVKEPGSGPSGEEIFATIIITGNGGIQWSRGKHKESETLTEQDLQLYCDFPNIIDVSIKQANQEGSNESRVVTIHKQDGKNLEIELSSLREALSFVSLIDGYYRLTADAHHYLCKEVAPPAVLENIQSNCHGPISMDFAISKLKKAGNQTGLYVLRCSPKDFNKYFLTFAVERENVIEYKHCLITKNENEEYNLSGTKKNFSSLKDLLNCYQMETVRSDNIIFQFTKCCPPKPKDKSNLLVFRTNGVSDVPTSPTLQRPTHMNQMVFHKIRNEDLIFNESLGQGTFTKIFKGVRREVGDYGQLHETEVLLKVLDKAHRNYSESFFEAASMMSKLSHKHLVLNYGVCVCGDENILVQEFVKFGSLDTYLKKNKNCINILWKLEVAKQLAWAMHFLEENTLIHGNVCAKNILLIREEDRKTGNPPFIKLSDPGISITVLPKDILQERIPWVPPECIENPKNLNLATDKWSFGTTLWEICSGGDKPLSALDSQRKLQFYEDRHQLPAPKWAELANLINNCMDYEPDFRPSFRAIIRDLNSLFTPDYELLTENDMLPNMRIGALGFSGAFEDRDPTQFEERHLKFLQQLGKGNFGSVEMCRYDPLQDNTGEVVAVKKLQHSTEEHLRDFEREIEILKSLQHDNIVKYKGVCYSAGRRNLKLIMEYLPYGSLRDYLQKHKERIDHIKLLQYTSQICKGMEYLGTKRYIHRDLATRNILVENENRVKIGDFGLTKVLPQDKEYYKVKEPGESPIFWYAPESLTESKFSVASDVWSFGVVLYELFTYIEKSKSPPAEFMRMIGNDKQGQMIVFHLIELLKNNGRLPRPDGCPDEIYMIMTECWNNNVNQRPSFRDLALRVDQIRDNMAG

[11] = target: MERTK (UniProt Q12866); assay: as above
Chain of MERTK (Q12866 whole entry, looked up): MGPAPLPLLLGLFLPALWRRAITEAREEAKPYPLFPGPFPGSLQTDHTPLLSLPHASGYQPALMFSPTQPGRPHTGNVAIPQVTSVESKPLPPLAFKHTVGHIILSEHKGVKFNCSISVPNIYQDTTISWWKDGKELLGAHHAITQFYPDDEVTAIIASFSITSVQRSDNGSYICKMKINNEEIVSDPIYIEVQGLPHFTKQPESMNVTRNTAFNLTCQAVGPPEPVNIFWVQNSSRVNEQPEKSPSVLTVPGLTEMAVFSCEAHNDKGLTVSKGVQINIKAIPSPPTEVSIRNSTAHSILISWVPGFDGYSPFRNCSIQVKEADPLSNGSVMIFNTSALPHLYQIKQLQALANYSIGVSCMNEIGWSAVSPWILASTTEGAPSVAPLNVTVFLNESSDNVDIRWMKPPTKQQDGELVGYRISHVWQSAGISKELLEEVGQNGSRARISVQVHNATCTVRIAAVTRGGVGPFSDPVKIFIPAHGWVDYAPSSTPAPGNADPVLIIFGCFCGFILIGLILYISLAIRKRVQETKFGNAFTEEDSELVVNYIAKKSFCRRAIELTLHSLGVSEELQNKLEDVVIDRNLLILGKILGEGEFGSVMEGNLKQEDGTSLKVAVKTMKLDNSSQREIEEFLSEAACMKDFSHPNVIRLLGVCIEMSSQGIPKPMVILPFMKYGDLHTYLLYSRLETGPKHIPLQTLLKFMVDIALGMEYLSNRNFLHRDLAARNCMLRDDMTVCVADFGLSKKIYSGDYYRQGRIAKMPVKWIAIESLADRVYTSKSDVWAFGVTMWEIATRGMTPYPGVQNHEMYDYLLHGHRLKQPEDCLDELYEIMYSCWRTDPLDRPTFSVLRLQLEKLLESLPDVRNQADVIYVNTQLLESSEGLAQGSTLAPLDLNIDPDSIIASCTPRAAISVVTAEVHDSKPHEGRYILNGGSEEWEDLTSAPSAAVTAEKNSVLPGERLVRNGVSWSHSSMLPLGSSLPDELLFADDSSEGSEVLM

[12] = system: c-Abl (mouse); assay: as above
[13] = system: c-Src; assay: as above
[14] = target: Grb2 SH2 (UniProt P62993); assay: SH2 binding enrichment of the phosphorylated peptide, bacterial display (enrichment ratio); higher = better substrate or ligand; peptides without Tyr show the background
Chain of Grb2 SH2 (P62993 whole entry, looked up): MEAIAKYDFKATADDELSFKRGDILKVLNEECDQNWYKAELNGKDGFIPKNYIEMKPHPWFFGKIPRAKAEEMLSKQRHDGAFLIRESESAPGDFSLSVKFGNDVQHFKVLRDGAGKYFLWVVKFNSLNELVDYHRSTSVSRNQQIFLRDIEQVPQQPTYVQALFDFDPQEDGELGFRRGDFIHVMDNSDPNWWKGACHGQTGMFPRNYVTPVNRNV

[15] = target: SHP2-C SH2; assay: as above
[16] = target: c-Src SH2; assay: as above
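Throughout, for SH2 binding enrichment of the phosphorylated peptide, bacterial display: peptide library displayed on the E. coli surface as eCPX fusions, selected cells deep-sequenced, score is each peptide's frequency after selection divided by its frequency in the input.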
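Throughout, for phosphorylation enrichment, bacterial display: 11-residue human phosphosite peptides and single-mutation variants displayed on the E. coli surface, counted by deep sequencing, each peptide's frequency after selection divided by its frequency in the unselected input library; frequency after pTyr selection over input frequency; kinase dosed for 20-30% of maximal phosphorylation in three min.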

Chain of EPHB2 (P29323 whole entry, looked up): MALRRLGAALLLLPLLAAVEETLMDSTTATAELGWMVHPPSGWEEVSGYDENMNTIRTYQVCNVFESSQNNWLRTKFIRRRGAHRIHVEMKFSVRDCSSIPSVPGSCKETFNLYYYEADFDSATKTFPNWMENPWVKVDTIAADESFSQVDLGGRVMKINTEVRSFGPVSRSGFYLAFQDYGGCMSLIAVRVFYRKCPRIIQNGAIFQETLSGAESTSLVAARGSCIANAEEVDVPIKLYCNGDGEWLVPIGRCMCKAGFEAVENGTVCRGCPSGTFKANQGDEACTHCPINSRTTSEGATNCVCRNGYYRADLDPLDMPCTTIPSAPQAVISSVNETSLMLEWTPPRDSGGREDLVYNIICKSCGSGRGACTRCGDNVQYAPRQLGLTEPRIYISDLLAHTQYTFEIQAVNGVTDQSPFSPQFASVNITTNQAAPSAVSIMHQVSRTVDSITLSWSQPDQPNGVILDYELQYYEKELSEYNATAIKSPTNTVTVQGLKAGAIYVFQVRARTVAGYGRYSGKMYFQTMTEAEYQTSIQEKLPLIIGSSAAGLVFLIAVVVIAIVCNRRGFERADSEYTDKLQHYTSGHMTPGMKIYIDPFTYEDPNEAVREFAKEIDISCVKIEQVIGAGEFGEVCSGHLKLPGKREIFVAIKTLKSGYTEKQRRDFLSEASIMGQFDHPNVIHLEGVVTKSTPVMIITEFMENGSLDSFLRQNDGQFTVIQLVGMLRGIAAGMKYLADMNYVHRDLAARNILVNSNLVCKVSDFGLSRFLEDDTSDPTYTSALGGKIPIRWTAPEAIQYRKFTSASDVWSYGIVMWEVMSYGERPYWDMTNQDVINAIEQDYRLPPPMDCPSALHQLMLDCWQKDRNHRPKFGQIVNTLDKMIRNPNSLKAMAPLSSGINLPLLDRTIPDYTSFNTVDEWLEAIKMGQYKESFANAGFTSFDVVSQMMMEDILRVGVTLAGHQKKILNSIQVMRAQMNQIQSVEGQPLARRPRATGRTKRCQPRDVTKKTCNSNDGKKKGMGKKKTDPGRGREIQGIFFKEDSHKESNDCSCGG

Sequence	phosphorylation enrichment [1]	phosphorylation enrichment [2]	phosphorylation enrichment [3]	phosphorylation enrichment [4]	phosphorylation enrichment [5]	phosphorylation enrichment [6]	phosphorylation enrichment [7]	phosphorylation enrichment [8]	phosphorylation enrichment [9]	phosphorylation enrichment [10]	phosphorylation enrichment [11]	phosphorylation enrichment [12]	phosphorylation enrichment [13]	SH2 binding enrichment [14]	SH2 binding enrichment [15]	SH2 binding enrichment [16]
DEDFLCREELA [POR_Y575_Y575C_YF]	1.25	0.701	0.657	0.572	0.846	0.486	1.38	0.528	0.629	1.33	0.501	0.821	0.613	0.8	0.734	0.543
FEEDSYSHVMA [FDPS_Y388_I391V_YF]	1.57	0.696	0.482	0.934	0.901	1.42	1.3	0.511	0.646	1.14	0.631	0.731	0.779	0.983	0.724	0.584
KDLPNYNWKSF [KISS1_Y112_N115K]	0.655	0.532	0.529	0.418	0.598	0.464	0.865	0.438	0.439	0.918	0.455	0.72	0.588	0.664	0.475	0.38
RDSQIYAVDYE [MRPS34_Y34_L33I]	1.86	2.44	1.94	1.21	1.37	1.89	1.56	7.43	4.23	0.977	4.3	0.684	4.24	0.824	0.691	0.485
YSSLGYPLPEG [ZSWIM4_Y87_P89L]	1.01	0.53	0.758	1.28	1.06	0.687	0.904	2.63	2.05	0.785	7.91	0.978	1.57	0.986	10.8	2.8
MSSLPYMKMIF [SLC4A11_Y853]	0.946	0.474	0.541	0.753	0.706	1.05	1.03	0.421	0.692	1.65	0.566	0.732	0.813	1.21	1.51	1.71
GDFLSYREFHL [ERBIN_Y1107_S1112L_YF]	0.915	0.599	0.527	0.501	0.792	0.737	0.956	0.467	0.653	0.824	0.423	0.805	0.543	0.786	0.845	0.556
ADRTRYSAFGG [RBM4_Y361_A359T]	0.599	0.345	0.356	0.391	0.44	0.4	0.797	0.413	0.37	0.551	0.382	0.495	0.399	0.897	1.08	0.617
NTGLDYIKFTW [HRH1_Y386]	1.37	0.647	0.742	1.64	1.26	0.402	1.31	0.39	0.495	1.92	0.605	0.902	0.612	0.892	0.811	0.475
INPIIYAFVGG [CCR5_Y297_E302G]	1.14	11.5	9.68	4.39	3.51	6.66	2.1	6.26	6.35	1.55	8.42	14.4	5.05	0.746	0.57	0.491
VVTFSYKPPGN [RBL2_Y544]	0.634	0.455	0.476	0.592	0.519	0.367	0.696	0.42	0.429	0.911	0.431	0.673	0.423	0.979	0.7	0.711
LEITWYPFDME [RIPOR2_Y316_V320M]	1.85	1.21	0.792	0.698	1.48	0.751	2.31	0.594	0.66	2.05	0.608	1.32	0.554	0.951	1.04	0.591
SRVTQYERDFE [SNX1_Y463]	0.837	0.428	0.486	0.501	0.611	0.419	0.954	0.46	0.476	0.635	0.379	0.844	0.396	0.854	0.77	0.697
ARMTNYGLPRY [TSPAN12_Y138]	0.576	0.463	0.588	0.495	0.441	0.576	0.739	0.619	0.554	0.606	0.497	0.66	0.534	1	0.761	0.5
TFEPNYGTVKR [RAPGEF6_Y1447_Q1452R_YF]	0.707	0.55	1.45	0.448	0.45	0.701	0.586	3.76	2.72	0.497	0.385	0.691	2.66	0.982	0.687	0.514
QKMLDYLKEKK [RYR2_Y3780]	0.9	0.401	0.345	0.553	0.673	0.442	1.1	0.542	0.491	0.579	0.398	0.533	0.513	1.09	0.778	0.498
RFLRGYEQDAY [HLA-A_Y137_R138E]	0.71	0.358	0.448	0.6	0.57	0.289	0.969	0.525	0.42	0.807	0.304	0.478	0.407	1.03	0.87	0.981

Sequence	phosphorylation enrichment [1]	phosphorylation enrichment [2]	phosphorylation enrichment [3]	phosphorylation enrichment [4]	phosphorylation enrichment [5]	phosphorylation enrichment [6]	phosphorylation enrichment [7]	phosphorylation enrichment [8]	phosphorylation enrichment [9]	phosphorylation enrichment [10]	phosphorylation enrichment [11]	phosphorylation enrichment [12]	phosphorylation enrichment [13]	SH2 binding enrichment [14]	SH2 binding enrichment [15]	SH2 binding enrichment [16]
RRIHSYRSHLW [VHL_Y112_G114S]	0.576	0.81	2.19	1.25	0.778	0.507	1.17	0.833	0.601	0.487	0.718	0.395	0.439	0.574	0.822	0.57
TNYCLYLRSLE [MTM1_Y71_R69C]	1.67	1.93	1.52	0.814	1	0.614	1.46	0.545	0.668	1.29	1.19	0.883	0.887	1.18	2	0.696
MEIHAYRKLSE [LMNA_Y376_L380S]	0.729	0.379	0.459	0.371	0.495	0.39	0.788	0.356	0.466	0.678	0.342	0.641	0.384	0.718	0.641	0.432
HPFHVYPQPGM [BAG3_Y114]	0.873	1.02	1.01	0.749	0.998	0.499	0.852	0.804	0.684	0.545	0.585	0.938	0.465	1.05	0.79	0.883
GGCQEYTGAPF [NAXD_Y85_YF]	1.17	0.541	0.618	0.526	0.8	0.587	1.14	0.464	0.506	0.817	0.456	0.636	0.528	0.817	0.576	0.508
RFLERYIFNRE [HLA-DPB1_Y57_YF]	0.786	0.324	0.363	0.329	0.543	0.356	0.914	0.311	0.44	0.748	0.409	0.627	0.432	1.54	1.09	1.46
DSFSSYCNAVA [SLC20A2_Y436_YF]	1.24	0.642	0.826	0.497	0.812	0.608	1.11	0.509	0.544	1.06	0.503	0.801	0.579	2	1.18	1.13
DLRTGYSVPYG [TGM1_Y370_Y365D]	0.721	0.409	0.411	0.553	0.592	0.456	0.665	0.392	0.459	0.663	0.399	0.568	0.384	0.906	0.717	9.61
MAFDRYVAICS [OR8D4_Y123_C120Y_YF]	1.15	0.905	0.762	0.463	0.726	0.563	1.14	0.515	0.665	1.07	0.507	0.78	0.489	0.724	0.64	1.08
ENQEIYQKAFD [KPNA1_Y493]	1.43	0.579	0.576	0.522	0.643	0.686	1.15	0.866	1.2	1.08	0.616	1.03	1.45	0.83	0.737	0.47
IVAREYYSEAD [CAMK2A_Y106]	1.03	0.557	0.552	0.618	0.81	0.586	1.2	0.474	0.557	1.01	0.455	0.664	0.548	0.886	0.645	3.2
DPNQQYYIAMD [TBX15_Y159_H156N]	1.12	0.875	0.719	3.98	2.95	0.487	0.992	0.566	0.613	0.959	1.65	0.571	0.812	0.881	0.628	1.44
AAFNRYDQERF [CDC73_Y293_YF]	0.665	0.402	0.473	0.394	0.504	0.463	0.856	0.469	0.397	0.609	0.398	0.684	0.427	0.866	0.549	0.448
SLDLSYFHTSS [EMD_Y181_P183H_YF]	0.799	0.517	0.6	0.549	0.595	0.441	0.881	0.464	0.559	1.06	0.566	0.645	0.466	0.907	0.591	0.599
WPLKWYAPECI [ZAP70_Y506]	1.25	0.886	0.766	0.573	0.806	0.598	1.39	0.565	0.405	1.03	0.433	0.666	0.425	0.83	0.817	0.501
FGMQLYQKFMH [GRB14_Y347_N349K_YF]	0.863	1.39	0.8	0.454	0.784	1.92	1	1.56	2.16	0.94	2.11	0.773	2.26	1.23	1.02	1.08
